Measurements from US20110300138A1 (published 2011).
Like-named read-outs stand apart in the source and are kept apart here.

Assays:
[1] = target: TSHR260-alkaline phosphatase (TSHR260-AP) (human) (UniProt P05187); assay: TSHR260-AP bridge ELISA, full length TSHR on wells; 0.005 µg/mL, diluted in assay buffer
[2] = target: TSH receptor (TSHR), full length human, coated on tubes (human) (UniProt P16473); assay: inhibition of 125I-TSH binding to TSHR coated tubes; 0.01 µg/mL, diluted in HBD serum pool
[3] = target: TSH receptor (TSHR), full length human, coated on tubes (human) (UniProt P16473); assay: inhibition of 125I-TSH binding to TSHR coated tubes; 0.1 µg/mL, diluted in assay buffer
[4] = target: human TSHR (thyroid stimulating hormone receptor) expressed in transfected CHO cells (human) (UniProt P16473); assay: cell-based or functional assay
[5] = target: TSH receptor (TSHR), full length human, coated on tubes (human) (UniProt P16473); assay: inhibition of 125I-TSH binding to TSHR coated tubes; 0.1 µg/mL, diluted in HBD serum pool
[6] = target: wild type TSHR expressed in CHO cells (human) (UniProt P16473); assay: cell-based or functional assay
[7] = target: TSHR with Arg274 mutated to Ala, expressed in CHO cells (human) (UniProt P16473); assay: cell-based or functional assay
[8] = target: wild type TSHR expressed in CHO cells (human) (UniProt P16473); assay: cell-based or functional assay; remark: listed apart in the source
[9] = target: TSHR with Asp276 mutated to Ala, expressed in CHO cells (human) (UniProt P16473); assay: cell-based or functional assay
[10] = target: human thyroid stimulating hormone receptor (TSHR), full length (human) (UniProt P16473); assay: 125I-K1-70 Fab (competitor) binding to TSHR coated tubes; test sample 1 µg/mL in assay buffer
[11] = target: thyroid stimulating hormone receptor (full length human TSHR) (human) (UniProt P16473); assay: ELISA, inhibition of TSH-biotin binding to TSHR coated wells; 100 µg/mL, diluted in assay buffer
[12] = target: human thyroid stimulating hormone receptor (TSHR), full length (human) (UniProt P16473); assay: 125I-K1-70 Fab (competitor) binding to TSHR coated tubes; test sample 0.1 µg/mL in HBD serum
[13] = target: human thyroid stimulating hormone receptor (TSHR), full length (human) (UniProt P16473); assay: 125I-K1-70 Fab (competitor) binding to TSHR coated tubes; test sample 0.01 µg/mL in HBD serum
[14] = target: human thyroid stimulating hormone receptor (TSHR), full length (human) (UniProt P16473); assay: 125I-K1-70 Fab (competitor) binding to TSHR coated tubes; test sample 10 µg/mL in HBD serum
[15] = target: human thyroid stimulating hormone receptor (TSHR), full length (human) (UniProt P16473); assay: 125I-K1-70 Fab (competitor) binding to TSHR coated tubes; test sample 100 µg/mL in HBD serum
[16] = target: human thyroid stimulating hormone receptor (TSHR), full length (human) (UniProt P16473); assay: 125I-K1-70 Fab (competitor) binding to TSHR coated tubes; test sample 100 µg/mL in assay buffer

## M22 IgG (antibody)
[1]
  Mean absorbance at 405 nm (absorbance at 405 nm): 0.075
[2]
  Inhibition of binding (%): -0.3%

## 5B3 IgG (antibody)
[3]
  Inhibition of binding (%): -5%
[4]
  % Inhibition; 10 ng/mL K1-18 IgG + 10 µg/mL 5B3 IgG: 4%
  % Inhibition; 10 ng/mL K1-18 IgG + 100 µg/mL 5B3 IgG: -13%
  Cyclic AMP concentration; 10 ng/mL K1-18 IgG + 10 µg/mL 5B3 IgG: 35.4 pmol/mL
  Cyclic AMP concentration; 10 ng/mL K1-18 IgG + 100 µg/mL 5B3 IgG: 41.9 pmol/mL
  Cyclic AMP concentration; 100 µg/mL 5B3 IgG: 1.3 pmol/mL
[5]
  Inhibition of binding (%): 4.4%
[6]
  % inhibition of TSH stimulation; 5B3 10 µg/mL: 0%
  % inhibition of TSH stimulation; 5B3 100 µg/mL: 0%
  Cyclic AMP produced; 5B3 10 µg/mL + TSH 3 ng/mL: 116 pmol/mL
  Cyclic AMP produced; 5B3 10 µg/mL + TSH 3 ng/mL (second row printed with 10 µg/mL): 121 pmol/mL
[7]
  % inhibition of TSH stimulation; 5B3 10 µg/mL: 0%
  % inhibition of TSH stimulation; 5B3 100 µg/mL: 4%
  Cyclic AMP produced; 5B3 10 µg/mL + TSH 3 ng/mL: 106 pmol/mL
  Cyclic AMP produced; 5B3 10 µg/mL + TSH 3 ng/mL (second row printed with 10 µg/mL): 95.3 pmol/mL
  Mutated/wild type (%) of cyclic AMP produced; 5B3 10 µg/mL + TSH 3 ng/mL: 92%
  Mutated/wild type (%) of cyclic AMP produced; 5B3 10 µg/mL + TSH 3 ng/mL (second row printed with 10 µg/mL): 79%
[8]
  % inhibition of TSH stimulation (stimulator given as M22), wild type TSHR; 5B3 10 µg/mL: 0%
  % inhibition of TSH stimulation (stimulator given as M22), wild type TSHR; 5B3 100 µg/mL: 0%
  % inhibition of TSH stimulation, wild type TSHR; 5B3 10 µg/mL: 0%
  % inhibition of TSH stimulation, wild type TSHR; 5B3 100 µg/mL: 0%
  % inhibition of TSH stimulation; 5B3 10 µg/mL: 0%
  % inhibition of TSH stimulation; 5B3 10 µg/mL; Experiment 1: 0%
  % inhibition of TSH stimulation; 5B3 10 µg/mL; Experiment 2: 0%
  % inhibition of TSH stimulation; 5B3 100 µg/mL: 0%
  % inhibition of TSH stimulation; 5B3 100 µg/mL; Experiment 1: 0%
  % inhibition of TSH stimulation; 5B3 100 µg/mL; Experiment 2: 8%
  Cyclic AMP produced; 5B3 10 µg/mL + TSH 3 ng/mL: 103 pmol/mL
  Cyclic AMP produced; 5B3 10 µg/mL + TSH 3 ng/mL; Experiment 1: 82.8 pmol/mL
  Cyclic AMP produced; 5B3 10 µg/mL + TSH 3 ng/mL; Experiment 2: 106 pmol/mL
  Cyclic AMP produced; 5B3 100 µg/mL + TSH 3 ng/mL: 94.8 pmol/mL
  Cyclic AMP produced; 5B3 100 µg/mL + TSH 3 ng/mL; Experiment 1: 80.7 pmol/mL
  Cyclic AMP produced; 5B3 100 µg/mL + TSH 3 ng/mL; Experiment 2: 90.4 pmol/mL
  Experiment 1: % inhibition of TSH stimulation; 5B3 10 µg/mL: 0%
  Experiment 1: % inhibition of TSH stimulation; 5B3 100 µg/mL: 0%
  Experiment 1; % inhibition of TSH stimulation; 5B3 10 µg/mL: 0%
  Experiment 1; % inhibition of TSH stimulation; 5B3 100 µg/mL: 7%
  Experiment 1; cyclic AMP produced; 5B3 10 µg/mL + TSH 3 ng/mL: 79.6 pmol/mL
  Experiment 1; cyclic AMP produced; 5B3 100 µg/mL + TSH 3 ng/mL: 72.7 pmol/mL
  Experiment 2: % inhibition of TSH stimulation; 5B3 10 µg/mL: 0%
  Experiment 2: % inhibition of TSH stimulation; 5B3 100 µg/mL: 0%
  Experiment 2; % inhibition of TSH stimulation; 5B3 10 µg/mL: 0%
  Experiment 2; % inhibition of TSH stimulation; 5B3 100 µg/mL: 0%
  Experiment 2; cyclic AMP produced; 5B3 10 µg/mL + TSH 3 ng/mL: 107 pmol/mL
  Experiment 2; cyclic AMP produced; 5B3 100 µg/mL + TSH 3 ng/mL: 101 pmol/mL
[8]; record 2
  % inhibition of TSH stimulation; 5B3 10 µg/mL: 0%
  % inhibition of TSH stimulation; 5B3 100 µg/mL: 0%
  Cyclic AMP produced; 5B3 10 µg/mL + TSH 3 ng/mL: 83.6 pmol/mL
  Cyclic AMP produced; 5B3 100 µg/mL + TSH 3 ng/mL: 88 pmol/mL
[9]
  Experiment 1; % inhibition of TSH stimulation; 5B3 10 µg/mL: 6%
  Experiment 1; % inhibition of TSH stimulation; 5B3 100 µg/mL: 4%
  Experiment 1; Mutated/wild type (%) of cyclic AMP produced; 5B3 10 µg/mL + TSH 3 ng/mL: 84%
  Experiment 1; Mutated/wild type (%) of cyclic AMP produced; 5B3 100 µg/mL + TSH 3 ng/mL: 94%
  Experiment 1; cyclic AMP produced; 5B3 10 µg/mL + TSH 3 ng/mL: 66.8 pmol/mL
  Experiment 1; cyclic AMP produced; 5B3 100 µg/mL + TSH 3 ng/mL: 68.5 pmol/mL
  Experiment 2; % inhibition of TSH stimulation; 5B3 10 µg/mL: 4%
  Experiment 2; % inhibition of TSH stimulation; 5B3 100 µg/mL: 0%
  Experiment 2; Mutated/wild type (%) of cyclic AMP produced; 5B3 10 µg/mL + TSH 3 ng/mL: 67%
  Experiment 2; Mutated/wild type (%) of cyclic AMP produced; 5B3 100 µg/mL + TSH 3 ng/mL: 75%
  Experiment 2; cyclic AMP produced; 5B3 10 µg/mL + TSH 3 ng/mL: 71.6 pmol/mL
  Experiment 2; cyclic AMP produced; 5B3 100 µg/mL + TSH 3 ng/mL: 75.9 pmol/mL

## 9D33 IgG (antibody)
[10]
  Inhibition of binding (%): 43.8%
[3]
  Inhibition of binding (%): 48.3%
[11]
  Inhibition of binding (%): 86.8%
[4]
  % Inhibition; 10 ng/mL K1-18 IgG + 0.001 µg/mL 9D33 IgG: 3%
  % Inhibition; 10 ng/mL K1-18 IgG + 0.01 µg/mL 9D33 IgG: 15%
  % Inhibition; 10 ng/mL K1-18 IgG + 0.1 µg/mL 9D33 IgG: 86%
  % Inhibition; 10 ng/mL K1-18 IgG + 1 µg/mL 9D33 IgG: 95%
  % Inhibition; 10 ng/mL K1-18 IgG + 10 µg/mL 9D33 IgG: 95%
  % Inhibition; 10 ng/mL K1-18 IgG + 100 µg/mL 9D33 IgG: 94%
  Cyclic AMP concentration; 10 ng/mL K1-18 IgG + 0.001 µg/mL 9D33 IgG: 35.8 pmol/mL
  Cyclic AMP concentration; 10 ng/mL K1-18 IgG + 0.01 µg/mL 9D33 IgG: 31.3 pmol/mL
  Cyclic AMP concentration; 10 ng/mL K1-18 IgG + 0.1 µg/mL 9D33 IgG: 5.3 pmol/mL
  Cyclic AMP concentration; 10 ng/mL K1-18 IgG + 1 µg/mL 9D33 IgG: 1.9 pmol/mL
  Cyclic AMP concentration; 10 ng/mL K1-18 IgG + 10 µg/mL 9D33 IgG: 1.9 pmol/mL
  Cyclic AMP concentration; 10 ng/mL K1-18 IgG + 100 µg/mL 9D33 IgG: 2.2 pmol/mL
  Cyclic AMP concentration; 100 µg/mL 9D33 IgG: 2 pmol/mL
[12]
  Inhibition of binding (%): 12.7%
[13]
  Inhibition of binding (%): -1.2%
[14]
  Inhibition of binding (%): 47.7%
[15]
  Inhibition of binding (%): 55.7%
[2]
  Inhibition of binding (%): 3.6%
[5]
  Inhibition of binding (%): 30.5%
[16]
  Inhibition of binding (%): 62.7%

B1: 5C9 IgG (antibody, from another filing, V domains shown)
VH: EVQLVESGGGLIQPGGSLRLSCAASGFTVSSNYMSWVRQAPGKGLEWVSVTYSGGSTSYADSVKGRFTISRDNSKNTLYLQMNSLRAEDTAVYYCARGGRYCSSISCYARSGCDYWGQGTLVTVSS
VL: AIQMTQSPSSLSASVGDRVTITCRASQSISNYLNWYQQKPGKAPKLLIYAASSLQSGVPSRFSGSGSGTDFTLTISSLQPEDFATYYCQQSYSSPSTTFGQGTKLEIK
[10]
  Inhibition of binding (%): 41.5%
[1]
  Mean absorbance at 405 nm (absorbance at 405 nm): -0.009
[11]
  Inhibition of binding (%): 54.3%
[12]
  Inhibition of binding (%): 6%
[13]
  Inhibition of binding (%): -4.4%
[14]
  Inhibition of binding (%): 20.7%
[15]
  Inhibition of binding (%): 40.6%
[16]
  Inhibition of binding (%): 93.3%
